From WO2020171171A1 (dated 2020)

Target: HLA-DR antigen expressed on human cells (L428, KM-H2, B cells of PBMC, other cancer cell lines, tumour tissue) (human)
Assay: cell-based or functional assay

- decrease in abundance of B cells (CD19 positive cells) among live PBMC, relative to isotype control (1 μg/ml antibody, 2 h, flow cytometry): ~60%
B1: BP1206 chimeric antibody (human Fc chimeric recombinant antibody designed based on the antibody LN-3) (antibody, human IgG1, kappa, L234A L235A, V domains shown)
VH: QVHLKQSGPGLVQPSQSLSITCTVSGFSLTRFGVHWIRQSPGKSLEWLGVTWSGGTTVYNGAFISRLSITKDISKSQVFFKMNSLQVDDTGIYYCARAYYAMDYWGQGTSVTVSS
VL: DVQMTQSPSYLAASPGETITIHCRASESIGKYLAWYQKKPGRSNRLLIYSGSTLQSGIPSRFSGSGSGTDFTLTVSSLEPEDFAMYYCQHHNDYPWTFGGGTKVEIKR
